Measured values published in paper PMC9902482 (2023).
“And” between values parts separate entries of the source, which are not always exact repeats. Equal entries are not always repeated.

T1: Lec domain of ADGRL3 (human, UniProt Q9HAR2 24-126, biotin on the Avi-tag (BirA) in the flow cytometry experiments)
T1 chain: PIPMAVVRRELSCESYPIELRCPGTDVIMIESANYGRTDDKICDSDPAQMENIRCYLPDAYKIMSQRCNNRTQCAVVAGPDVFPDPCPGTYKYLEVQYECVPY

B1: synthetic antibody fragment (sAB) LK30 (Fab, V domains shown)
VH: EVQLVESGGGLVQPGGSLRLSCAASGFNIYYSSIHWVRQAPGKGLEWVAYISPYSGSTSYADSVKGRFTISADTSKNTAYLQMNSLRAEDTAVYYCARYKYGQGHMGAFDYWGQGTLVTVSS
VL: DIQMTQSPSSLSASVGDRVTITCRASQSVSSAVAWYQQKPGKAPKLLIYSASSLYSGVPSRFSGSRSGTDFTLTISSLQPEDFATYYCQQSNTELVTFGQGTKVEIK
B2: ADGRL3 Lec/Olf fragment (domain or fragment)
chain: PIPMAVVRRELSCESYPIELRCPGTDVIMIESANYGRTDDKICDSDPAQMENIRCYLPDAYKIMSQRCNNRTQCAVVAGPDVFPDPCPGTYKYLEVQYECVPYKVEQKVFLCPGLLKGVYQSEHLFESDHQSGAWCKDPLQASDKIYYMPWTPYRTDTLTEYSSKDDFIAGRPTTTYKLPHRVDGTGFVVYDGALFFNKERTRNIVKFDLRTRIKSGEAIIANANYHDTSPYRWGGKSDIDLAVDENGLWVIYATEQNNGKIVISQLNPYTLRIEGTWDTAYDKRSASNAFMICGILYVVKSVYEDDDNEATGNKIDYIYNTDQSKDSLVDVPFPNSYQYIAAVDYNPRDNLLYVWNNYHVVKYSLDFGPLD
B3: full-length extracellular region (ECR) of ADGRL3 (domain or fragment)
chain 1: FSRAPIPMAVVRRELSCESYPIELRCPGTDVIMIESANYGRTDDKICDSDPAQMENIRCYLPDAYKIMSQRCNNRTQCAVVAGPDVFPDPCPGTYKYLEVQYECVPYKVEQKVFLCPGLLKGVYQSEHLFESDHQSGAWCKDPLQASDKIYYMPWTPYRTDTLTEYSSKDDFIAGRPTTTYKLPHRVDGTGFVVYDGALFFNKERTRNIVKFDLRTRIKSGEAIIANANYHDTSPYRWGGKSDIDLAVDENGLWVIYATEQNNGKIVISQLNPYTLRIEGTWDTAYDKRSASNAFMICGILYVVKSVYEDDDNEATGNKIDYIYNTDQSKDSLVDVPFPNSYQYIAAVDYNPRDNLLYVWNNYHVVKYSLDFGPLDSRSGQAHHGQVSYISPPIHLDSELERPSVKDISTTGPLGMGSTTTSTTLRTTTLSPGRSTTPSVSGRRNRSTSTPSPAVEVLDDMTTHLPSASSQIPALEESCEAVEAREIMWFKTRQGQIAKQPCPAGTIGVSTYLCLAPDGIWDPQGPDLSNCSSPWVNHITQKLKSGETAANIARELAEQTRNHLNAGDITYSVRAMDQLVGLLDVQLRNLTPGGKDSAARSLNKAMVETVNNLLQPQALNAWRDLTTSDQLRAATMLLHTVEESAFVLADNLLKTDIVRENTDNIKLEVARLSTEGNLEDLKFPENMGHGSTIQLSANTLKQNGRNGEIRVAFVLYNNLGPYLSTENASMKLGTEALSTNHSVIVNSPVITAAINKEFSNKVYLADPVVFTVKHIKQSEENFNPNCSFWSYSKRTMTGYWSTQGCRLLTTNKTHTTCSCNHL
chain 2: TNFAVLMAHVEVKHSDAVHDL
modifications: biotin on the Avi-tag (BirA) where used biotinylated

What was measured:
[1] = biological target: B3; test: SPR
[2] = biological target: B2; test: SPR
[3] = biological target: B3; test: SPR
[4] = biological target: B2; test: SPR
[5] = biological target: T1, Lec domain of ADGRL3; test: SPR
[6] = biological target: LK29; test: SPR
[7] = biological target: LK12; test: SPR
[8] = biological target: LK31; test: SPR
[9] = biological target: LK25; test: ELISA

Row | Kd [1] [nM] | Kd [2] | koff [3] [s⁻¹] | koff [4] | koff [5] [s⁻¹] | Kd [6] [nM] | koff [6] [s⁻¹] | Kd [7] [nM] | koff [7] [s⁻¹] | Kd [8] [nM] | koff [8] [s⁻¹] | Kd [9] [nM] | Binder
1 | 4.2 | 5.4 nM and 3.7 nM | 0.0058 | 0.0066 s⁻¹ and 0.0049 s⁻¹ | 0.0113 | – | – | – | – | – | – | – | B1
2 | – | – | – | – | – | 2.5 | 0.001 | 12.5 | 0.0099 | 3.6 | 0.0029 | – | B2
3 | – | – | – | – | – | 4.1 | 0.0015 | 8.3 | 0.0032 | 3.8 | 0.002 | 56.8 | B3
